Biological target: T1, human TRAP1 (mitochondrial Hsp90) (human, UniProt Q12931 60-704)
T1 sequence (looked up): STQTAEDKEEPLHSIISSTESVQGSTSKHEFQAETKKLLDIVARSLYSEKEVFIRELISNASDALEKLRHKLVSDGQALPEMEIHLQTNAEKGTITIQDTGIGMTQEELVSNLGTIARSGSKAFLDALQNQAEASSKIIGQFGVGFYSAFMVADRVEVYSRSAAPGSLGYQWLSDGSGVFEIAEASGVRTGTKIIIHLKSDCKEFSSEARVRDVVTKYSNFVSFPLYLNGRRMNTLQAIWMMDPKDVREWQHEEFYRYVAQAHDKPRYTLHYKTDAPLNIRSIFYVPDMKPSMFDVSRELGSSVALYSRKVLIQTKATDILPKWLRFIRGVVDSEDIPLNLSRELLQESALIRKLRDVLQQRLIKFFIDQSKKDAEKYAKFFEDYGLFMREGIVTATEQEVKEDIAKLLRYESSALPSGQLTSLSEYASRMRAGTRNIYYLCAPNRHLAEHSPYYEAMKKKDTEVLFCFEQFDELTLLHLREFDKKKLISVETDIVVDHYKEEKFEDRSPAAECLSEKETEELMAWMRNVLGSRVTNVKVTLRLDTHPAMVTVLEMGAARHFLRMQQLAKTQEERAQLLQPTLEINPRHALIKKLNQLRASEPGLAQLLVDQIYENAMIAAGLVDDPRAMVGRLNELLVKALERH
Assay: cell-based or functional assay

B1: SdhB160 (truncated human succinate dehydrogenase B subunit, truncated at K160) (domain or fragment, UniProt P21912 29-160, looked up)
chain: AQTAAATAPRIKKFAIYRWDPDKAGDKPHMQTYEVDLNKCGPMVLDALIKIKNEVDSTLTFRRSCREGICGSCAMNINGGNTLACTRRIDTNLNKVSKIYPLPHMYVIKDLVPDLSNFYAQYKSIEPYLKKK
In the case of B1, the “acceleration of TRAP1 ATPase activity, EC50” value is reported as 6.6 µM and the “acceleration of TRAP1 dimer closure, inter-protomer FRET assay, EC50” value is reported as 3.6 µM.

Reference: publication doi:10.1101/2020.10.06.327627 (bioRxiv, 2020)
